T1: P2 peptide comprising SEQ ID NO: 31 (human fibrin γ377-395) (human)
T1 construct: Bought (CPC Scientific 920712); also called human P2 peptide
T1 peptide: YSMKKTTMKIIPFNRLTIG

T2: human Fibrin (human fibrinogen clotted on the plate with thrombin and CaCl2) (human, UniProt P02671 36-629; P02675 45-491; P02679 27-437)
T2 construct: Made in the ELISA wells from the human fibrinogen by thrombin and CaCl2, 1 hour at 37 C, then dried
T2 sequence (looked up) 1: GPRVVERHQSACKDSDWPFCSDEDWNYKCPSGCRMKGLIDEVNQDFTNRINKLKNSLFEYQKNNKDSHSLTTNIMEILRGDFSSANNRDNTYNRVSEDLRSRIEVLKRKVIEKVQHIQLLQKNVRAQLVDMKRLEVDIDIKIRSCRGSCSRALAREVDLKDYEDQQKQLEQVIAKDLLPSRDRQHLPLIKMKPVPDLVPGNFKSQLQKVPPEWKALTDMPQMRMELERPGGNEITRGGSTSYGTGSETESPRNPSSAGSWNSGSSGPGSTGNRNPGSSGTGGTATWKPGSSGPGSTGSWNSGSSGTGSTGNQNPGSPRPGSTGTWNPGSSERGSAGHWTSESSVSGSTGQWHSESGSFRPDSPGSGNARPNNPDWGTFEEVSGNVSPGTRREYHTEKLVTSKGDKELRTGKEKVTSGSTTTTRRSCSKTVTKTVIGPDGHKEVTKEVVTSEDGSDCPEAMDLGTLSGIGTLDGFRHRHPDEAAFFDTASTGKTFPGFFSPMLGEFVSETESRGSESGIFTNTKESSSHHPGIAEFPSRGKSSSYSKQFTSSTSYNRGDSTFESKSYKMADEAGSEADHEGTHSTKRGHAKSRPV
T2 sequence (looked up) 2: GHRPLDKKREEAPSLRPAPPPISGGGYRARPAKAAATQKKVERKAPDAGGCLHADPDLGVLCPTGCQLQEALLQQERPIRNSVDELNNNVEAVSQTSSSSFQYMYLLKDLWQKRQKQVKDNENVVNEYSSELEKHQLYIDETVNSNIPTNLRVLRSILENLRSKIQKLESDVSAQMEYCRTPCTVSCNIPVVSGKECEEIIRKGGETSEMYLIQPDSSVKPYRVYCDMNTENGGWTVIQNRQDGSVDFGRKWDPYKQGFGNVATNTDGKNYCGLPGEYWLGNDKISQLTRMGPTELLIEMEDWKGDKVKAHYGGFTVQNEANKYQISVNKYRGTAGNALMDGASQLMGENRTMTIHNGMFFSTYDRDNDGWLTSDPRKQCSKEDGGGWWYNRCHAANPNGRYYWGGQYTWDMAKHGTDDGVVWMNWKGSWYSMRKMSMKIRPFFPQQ
T2 sequence (looked up) 3: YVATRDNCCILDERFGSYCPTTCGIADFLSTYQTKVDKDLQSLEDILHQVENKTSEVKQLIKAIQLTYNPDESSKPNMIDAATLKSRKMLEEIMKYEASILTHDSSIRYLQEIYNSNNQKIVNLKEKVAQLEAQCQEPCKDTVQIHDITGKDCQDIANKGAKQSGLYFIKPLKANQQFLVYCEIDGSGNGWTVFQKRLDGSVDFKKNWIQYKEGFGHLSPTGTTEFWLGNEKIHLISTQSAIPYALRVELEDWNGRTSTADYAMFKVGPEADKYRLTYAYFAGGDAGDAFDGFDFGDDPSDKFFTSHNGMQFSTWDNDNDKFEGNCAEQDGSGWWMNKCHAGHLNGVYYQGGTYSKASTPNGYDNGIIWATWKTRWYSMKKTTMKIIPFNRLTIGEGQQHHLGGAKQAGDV

B1: humanized VH5/Vκ2 antibody (antibody, IgG1, V domains shown)
VH: QVQLVQSGAEVKKPGSSVKVSCKASGYTFTSYWIHWVRQAPGQGLEWIGLIDPSDSYTNYNQKFRGRVTITRDTSTSTAYMELSSLRSEDTAVYYCASSDPTGCWGQGTTVTVSS
VL: DIVMTQAAFSNPVTPGTPASISCRSSKSLLHSSGITYLSWYLQKPGQSPQLLIYQMSNLASGVPDRFSSSGSGTDFTLKISRVEAEDVGVYYCAQNLELPLTFGQGTKLEIK
notes: IgG1; also called VH5/VK2; VH5Vk2
B2: humanized VH4/Vκ2 antibody (antibody, IgG1, V domains shown)
VH: B1 VH with R72V
VL: B1 VL
notes: IgG1; also called VH4/VK2; VH4Vk2
B3: humanized VH6/Vκ2 antibody (antibody, IgG1, V domains shown)
VH: B1 VH with R65Q
VL: B1 VL
notes: Expressed as IgG1; also called VH6/VK2; VH6Vk2
B4: humanized VH4/Vκ1 antibody (antibody, IgG1, V domains shown)
VH: B1 VH with R72V
VL: B1 VL with V13I, K79R
notes: Expressed as IgG1; also called VH4/VK1; VH4Vk1

Substitutions are numbered along the chain they refer to.

The record followed here is patent US20240279357A1 (THERINI BIO, published 2024).

One assay has as its target T1, P2 peptide comprising SEQ ID NO: 31 …. Put plainly: ELISA on coated P2 peptide. As to the method: (§1) The humanized antibodies affinity for fibrinogen, fibrin and P2 peptide were assessed by Enzyme-linked immunosorbent assays (ELISA)s (FIGS. 7-16). ELISAs for fibrinogen binding were performed using plasminogen-depleted human Fibrinogen (EMD/Calbiochem). […] IgG1-depleted Fibrinogen (FGN) in 20 mM HEPES/Saline buffer was added to each well of half of a 96-well Nunc Maxisorp™ ELISA plate. The ELISAs for fibrin binding were prepared by adding 50 mL of 20 mM HEPES/Saline buffer containing 14 mM CaCl₂, and 2 units thrombin to each well of the second half of the Nunc Maxisorp™ ELISA plate. 50 mL of 20 mg fibrinogen in 20 mM HEPES/Saline buffer were then added to a total volume of 100 mL. Plates were placed in a 37° C. incubator for 1 hour to allow fibrinogen to clot into fibrin and subsequently placed overnight into a plate dryer at 37° C. overnight. The ELISAs for P2 peptide were prepared by addition of […] of 30 mM P2 peptide in 20 mM HEPES/Saline buffer to each well of a 96-well Nunc Maxisorp™ ELISA plate. Plates were transferred to the plate dryer and dried overnight at 37° C. All ELISAs were preformed using Nunc MaxiSorp 96-well ELISA plates. Blocking was performed using 100 mL 5% BSA in DPBS are incubated at RT for 1 hour. Plates were washed 5× in DPBS containing 0.05% Tween-20 (EL406 was used for the addition of wash buffer only). 50 mL of primary antibodies was diluted in 0.5% BSA in DPBS, and the primary antibodies were added to the plates and incubated for 2 hours at 37° C. Plates were washed 5× in DPBS/Tween. 100 mL secondary antibodies were diluted in 0.5% BSA in DPBS. The secondary antibodies were then added to the plates and incubated for 1 hour at RT. Afterwards, plates were washed 5× in DPBS/Tween. 100 mL of TMB/E substrate solution was added, and the reaction was stopped after 5 minutes with 1N HCl.
A general note: ELISA stands for enzyme-linked immunosorbent assay.
By EC50 is commonly meant the concentration needed to bring the measured effect to its halfway point. Low readings indicate higher potency in that assay, high ones lower potency in that assay. In turn, B1 came in with an EC50 of roughly 78.1 nM.
In the case of B2, the EC50 was roughly 85.1 nM.
B3 displayed an EC50 of roughly 110 nM.
In the case of B4, the EC50 is roughly 81.3 nM.

A further assay has the same target. Put plainly: SPR (Biacore) multicycle, steady state fit; purified IgG captured, P2 peptide analyte. As to the method:
Multicycle kinetics analysis of the variants were also performed to determine antibody affinity. […] At the start of each cycle, antibodies were loaded onto Fc2, Fc3 and Fc4 of the anti-human capture chip (GE Healthcare, Little Chalfont, UK). IgGs were captured at a flow rate of 10 μl/min to give an immobilization level (RL) of ˜1674 RU, the theoretical value to obtain a RMax of ˜50 RU. The surface was then allowed to stabilize. Kinetic data was obtained with P2 peptide as analyte using a flow rate of […] to minimize any potential mass transfer effects. Multiple repeats of a blank and a repeat of three concentrations of the analyte were programmed into the kinetic run in order to check the stability of both the surface and analyte over the kinetic cycles. […] The association phase of the peptide was monitored for 20 seconds and the dissociation phase was monitored for 25 seconds. Regeneration of the anti-human capture surface was conducted using one injection of 3.8 M magnesium chloride. The signal from the reference channel Fc1 was subtracted from that of Fc2, Fc3 and Fc4 to correct for differences in non-specific binding to a reference surface, and the data was then analyzed using steady state analysis due to the low affinity interaction to P2 peptide.
The Kd is the constant that tells how readily two partners part at equilibrium. Read a high Kd as weaker binding. As to B1, binding was put at a Kd of 122000 nM and the “Relative KD” value stood at 1.88 fold against VH0/VK0.
For B2, binding was characterised by a dissociation constant (Kd) of 79200 nM and the “Relative KD” value is 1.22 fold against VH0/VK0.
Turning to B3, the Kd is 132000 nM and the “Relative KD” value worked out at 2.04 fold against VH0/VK0.
For the molecule B4, the affinity, expressed as Kd, was 86200 nM and the “Relative KD” value was 1.33 fold against VH0/VK0.

The target of a further assay is T2, human Fibrin (human fibrinogen clotted …). Put plainly: ELISA on human fibrin formed on the plate. As to the method: as §1
B1 registered an EC50 of roughly 525 nM.
The molecule B2 gave an EC50 of roughly 762 nM.
As for B3, the EC50 is roughly 488 nM.
B4 displayed an EC50 of roughly 219 nM.
